Laboratory results taken from PMC6322573, “Profiling of advanced glycation end products uncovers abiotic stress-specific target proteins in Arabidopsis” (Journal of Experimental Botany, 2018).

B1: GAPC1 (cytosolic glyceraldehyde-3-phosphate dehydrogenase C1) (Arabidopsis thaliana) (protein)
chain: MADKKIRIGINGFGRIGRLVARVVLQRDDVELVAVNDPFITTEYMTYMFKYDSVHGQWKHNELKIKDEKTLLFGEKPVTVFGIRNPEDIPWAEAGADYVVESTGVFTDKDKAAAHLKGGAKKVVISAPSKDAPMFVVGVNEHEYKSDLDIVSNASCTTNCLAPLAKVINDRFGIVEGLMTTVHSITATQKTVDGPSMKDWRGGRAASFNIIPSSTGAAKAVGKVLPALNGKLTGMSFRVPTVDVSVVDLTVRLEKAATYDEIKKAIKEESEGKLKGILGYTEDDVVSTDFVGDNRSSIFDAKAGIALSDKFVKLVSWYDNEWGYSSRVVDLIVHMSKA
B2: TPI (chloroplastic triosephosphate isomerase) (Arabidopsis thaliana) (protein)
chain: MAGSGKFFVGGNWKCNGTKDSIAKLISDLNSATLEADVDVVVSPPFVYIDQVKSSLTDRIDISGQNSWVGKGGAFTGEISVEQLKDLGCKWVILGHSERRHVIGEKDEFIGKKAAYALSEGLGVIACIGEKLEEREAGKTFDVCFAQLKAFADAVPSWDNIVVAYEPVWAIGTGKVASPQQAQEVHVAVRGWLKKNVSEEVASKTRIIYGGSVNGGNSAELAKEEDIDGFLVGGASLKGPEFATIVNSVTSKKVAA
notes: measured mass 29273 Da; homodimer

Key:
[1] = substrate: O=CC(O)COP(=O)(O)O; test: purified protein; details: non-glycated enzyme, 10 mM NAD+, 3 mM DTT, 10 mM sodium phosphate pH 8.5, 100 mM NaCl, 25 °C
[2] = substrate: O=CC(O)COP(=O)(O)O; test: purified protein; assay type: biochemical, Arabidopsis thaliana; details: non-glycated enzyme, 0.1 mM NADH, alpha-glycerophosphate dehydrogenase 5 U, 10 mM sodium phosphate pH 7.0, 100 mM NaCl, 25 °C

Row | Protein | Km [1] | kcat [1] | kcat/Km [1] | Km [2] | kcat [2] | kcat/Km [2]
1 | B1 | 0.77 (±0.21) mM | 76.4 s⁻¹ | 99000 M⁻¹ s⁻¹ | – | – | –
2 | B2 | – | – | – | 1.21 (±0.39) mM | 18.4 ± 2.25 s⁻¹ | 15000 M⁻¹ s⁻¹
